The record followed here is the supplement of paper PMC5998384.

Data set [1] concerns HeLa Kyoto. The experiment in a line: melting temperature (median over replicates), in situ; higher = more thermally stable.
Data set [2] concerns HeLa Kyoto. Put plainly: solubility change mitosis vs G1/S (difference of NP-40 vs SDS log2 ratios) (log2 ratio difference); higher = more soluble in mitosis.
The test system of data set [3] is HeLa Kyoto. Put plainly: thermal stability score vs G1/S (z-score of summed log2 fold changes over temperatures); higher = more thermally stable than in G1/S.
In data set [4] the test system is HeLa Kyoto. Put plainly: solubility in G1/S (NP-40 vs SDS abundance) (log2 ratio); higher = more soluble. To be noted: cell cycle stage: G1/S.
The mark [5] stands for this setting: cell cycle stage: early G1 (4.5 h after nocodazole release).
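Wherever melting temperature (median over replicates), in situ is given: HeLa Kyoto cells synchronized by double thymidine or nocodazole block, proteins quantified by TMT10plex mass spectrometry, three independent biological replicates.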
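Wherever solubility change mitosis vs G1/S (difference of NP-40 vs SDS log2 ratios) is given: synchronized HeLa Kyoto cells (double thymidine block for G1/S, nocodazole release for mitosis), protein amounts in NP-40 versus SDS lysates quantified by mass spectrometry, three biological replicates.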
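Wherever solubility in G1/S (NP-40 vs SDS abundance) is given: HeLa Kyoto cells arrested at G1/S by double thymidine block, proteins quantified by TMT10plex mass spectrometry in mild NP-40 versus SDS extracts, three biological replicates.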
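Wherever thermal stability score vs G1/S (z-score of summed log2 fold changes over temperatures) is given: synchronized HeLa Kyoto cells, proteins quantified by TMT10plex mass spectrometry, three biological replicates, mitosis taken 0.5 h after nocodazole release, G1/S directly after double thymidine block.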

As to “MERPLCSHLCSCLAMLALLSPLSLAQYDSWPHYPEYFQQPAPEYHQPQAPANVAKIQLRLAGQKRKHSEGRVEVYYDGQWGTVCDDDFSIHAAHVVCRELGYVEAKSWTASSSYGKGEGPIWLDNLHCTGNEATLAACTSNGWGVTDCKHTEDVGVVCSDKRIPGFKFDNSLINQIENLNIQVEDIRIRAILSTYRKRTPVMEGYVEVKEGKTWKQICDKHWTAKNSRVVCGMFGFPGERTYNTKVYKMFASRRKQRYWPFSMDCTGTEAHISSCKLGPQVSLDPMKNVTCENGLPAVVSCVPGQVFSPDGPSRFRKAYKPEQPLVRLRGGAYIGEGRVEVLKNGEWGTVCDDKWDLVSASVVCRELGFGSAKEAVTGSRLGQGIGPIHLNEIQCTGNEKSIIDCKFNAESQGCNHEEDAGVRCNTPAMGLQKKLRLNGGRNPYEGRVEVLVERNGSLVWGMVCGQNWGIVEAMVVCRQLGLGFASNAFQETWYWHGDVNSNKVVMSGVKCSGTELSLAHCRHDGEDVACPQGGVQYGAGVACSETAPDLVLNAEMVQQTTYLEDRPMFMLQCAMEENCLSASAAQTDPTTGYRRLLRFSSQIHNNGQSDFRPKNGRHAWIWHDCHRHYHSMEVFTHYDLLNLNGTKVAEGHKASFCLEDTECEGDIQKNYECANFGDQGITMGCWDMYRHDIDCQWVDITDVPPGDYLFQVVINPNFEVAESDYSNNIMKCRSRYDGHRIWMYNCHIGGSFSEETEKKFEHFSGLLNNQLSPQ [LOXL2]”, the melting temperature in the data set with HeLa Kyoto [1] (cell cycle stage: G1/S) is 54.3 °C; with HeLa Kyoto [1] (cell cycle stage: mitosis), 54.7 °C. Moreover, the “solubility change mitosis (log2)” value with HeLa Kyoto [2] was -0.173. Further, the figures for the thermal stability score with HeLa Kyoto [3] (setting [5]) and with HeLa Kyoto [3] (cell cycle stage: mitosis) were 2.38 and 4.28, respectively. For the same sequence, the “solubility in G1/S (log2)” value with HeLa Kyoto [4] is -0.152.

With “MERQVLLSEPEEAAALYRGLSRQPALSAACLGPEVTTQYGGQYRTVHTEWTQRDLERMENIRFCRQYLVFHDGDSVVFAGPAGNSVETRGELLSRESPSGTMKAVLRKAGGTGPGEEKQFLEVWEKNRKLKSFNLSALEKHGPVYEDDCFGCLSWSHSETHLLYVAEKKRPKAESFFQTKALDVSASDDEIARLKKPDQAIKGDQFVFYEDWGENMVSKSIPVLCVLDVESGNISVLEGVPENVSPGQAFWAPGDAGVVFVGWWHEPFRLGIRFCTNRRSALYYVDLIGGKCELLSDDSLAVSSPRLSPDQCRIVYLQYPSLIPHHQCSQLCLYDWYTKVTSVVVDVVPRQLGENFSGIYCSLLPLGCWSADSQRVVFDSAQRSRQDLFAVDTQVGTVTSLTAGGSGGSWKLLTIDQDLMVAQFSTPSLPPTLKVGFLPSAGKEQSVLWVSLEEAEPIPDIHWGIRVLQPPPEQENVQYAGLDFEAILLQPGSPPDKTQVPMVVMPHGGPHSSFVTAWMLFPAMLCKMGFAVLLVNYRGSTGFGQDSILSLPGNVGHQDVKDVQFAVEQVLQEEHFDASHVALMGGSHGGFISCHLIGQYPETYRACVARNPVINIASMLGSTDIPDWCVVEAGFPFSSDCLPDLSVWAEMLDKSPIRYIPQVKTPLLLMLGQEDRRVPFKQGMEYYRALKTRNVPVRLLLYPKSTHALSEVEVESDSFMNAVLWLRTHLGS [APEH]”, the melting temperature is 58.5 °C with HeLa Kyoto [1] (cell cycle stage: G1/S) and 59.4 °C in the data set with HeLa Kyoto [1] (cell cycle stage: mitosis). Moreover, in the data set with HeLa Kyoto [2], the “solubility change mitosis (log2)” value is -0.0981. Besides, the values for the thermal stability score with HeLa Kyoto [3] (setting [5]) and in the data set on HeLa Kyoto [3] (cell cycle stage: mitosis) were -2.58 and -2.38, respectively. For the same sequence, the “solubility in G1/S (log2)” value with HeLa Kyoto [4] stood at 0.11.

Regarding “MERSGPSEVTGSDASGPDPQLAVTMGFTGFGKKARTFDLEAMFEQTRRTAVERSRKTLEAREKEEEMNREKELRRQNEDIEPTSSRSNVVRDCSKSSSRDTSSSESEQSSDSSDDELIGPPLPPKMVGKPVNFMEEDILGPLPPPLNEEEEEAEEEEEEEEEEENPVHKIPDSHEITLKHGTKTVSALGLDPSGARLVTGGYDYDVKFWDFAGMDASFKAFRSLQPCECHQIKSLQYSNTGDMILVVSGSSQAKVIDRDGFEVMECIKGDQYIVDMANTKGHTAMLHTGSWHPKIKGEFMTCSNDATVRTWEVENPKKQKSVFKPRTMQGKKVIPTTCTYSRDGNLIAAACQNGSIQIWDRNLTVHPKFHYKQAHDSGTDTSCVTFSYDGNVLASRGGDDSLKLWDIRQFNKPLFSASGLPTMFPMTDCCFSPDDKLIVTGTSIQRGCGSGKLVFFERRTFQRVYEIDITDASVVRCLWHPKLNQIMVGTGNGLAKVYYDPNKSQRGAKLCVVKTQRKAKQAETLTQDYIITPHALPMFREPRQRSTRKQLEKDRLDPLKSHKPEPPVAGPGRGGRVGTHGGTLSSYIVKNIALDKTDDSNPREAILRHAKAAEDSPYWVSPAYSKTQPKTMFAQVESDDEEAKNEPEWKKRKI [WDR70]”, the values for the melting temperature in the data set on HeLa Kyoto [1] (cell cycle stage: G1/S) and with HeLa Kyoto [1] (cell cycle stage: mitosis) were 53.3 °C and 53.2 °C, respectively. Also, the “solubility change mitosis (log2)” value in the data set on HeLa Kyoto [2] is -0.0897. Moreover, the thermal stability score in the data set on HeLa Kyoto [3] (setting [5]) is -0.26; in the data set on HeLa Kyoto [3] (cell cycle stage: mitosis), -0.746. The “solubility in G1/S (log2)” value with HeLa Kyoto [4] is -0.0649.

Regarding “MESALPAAGFLYWVGAGTVAYLALRISYSLFTALRVWGVGNEAGVGPGLGEWAVVTGSTDGIGKSYAEELAKHGMKVVLISRSKDKLDQVSSEIKEKFKVETRTIAVDFASEDIYDKIKTGLAGLEIGILVNNVGMSYEYPEYFLDVPDLDNVIKKMININILSVCKMTQLVLPGMVERSKGAILNISSGSGMLPVPLLTIYSATKTFVDFFSQCLHEEYRSKGVFVQSVLPYFVATKLAKIRKPTLDKPSPETFVKSAIKTVGLQSRTNGYLIHALMGSIISNLPSWIYLKIVMNMNKSTRAHYLKKTKKN [HSD17B12]”, the melting temperature came out at 53.9 °C in the data set on HeLa Kyoto [1] (cell cycle stage: G1/S) and 53.7 °C in the data set on HeLa Kyoto [1] (cell cycle stage: mitosis). For the same sequence, the “solubility change mitosis (log2)” value in the data set on HeLa Kyoto [2] was -0.194. Also, the thermal stability score with HeLa Kyoto [3] (setting [5]) was -1.05; with HeLa Kyoto [3] (cell cycle stage: mitosis), -1.18. In addition, the “solubility in G1/S (log2)” value in the data set on HeLa Kyoto [4] came to 0.079.
